According to paper PMC5407579:

How the values were obtained:
[1] = molecular target: α subunit of the oxygenase component of 3-nitrotoluene dioxygenase (3NTDO-ODS2) from Diaphorobacter sp. strain DS2 (Diaphorobacter sp. strain DS2); test: crystal structure; oxygenase 3NTDO-ODS2 (α and β co-expressed and co-purified), hanging drop vapor diffusion at 277 K, 0.2M sodium citrate tribasic and 20% PEG 3350 pH 8.3; molecular replacement with 1NDO; 2.9 Å
[2] = molecular target: β subunit of the oxygenase component of 3-nitrotoluene dioxygenase (3NTDO-ODS2) from Diaphorobacter sp. strain DS2 (Diaphorobacter sp. strain DS2); test: as above

Row | stoichiometry N [1] | stoichiometry N [2] | Substance
1 | 3 |  | α subunit of the oxygenase component of 3-nitrotoluene dioxygenase (3NTDO-ODS2) from Diaphorobacter sp. strain DS2 (natural protein)
2 |  | 3 | β subunit of the oxygenase component of 3-nitrotoluene dioxygenase (3NTDO-ODS2) from Diaphorobacter sp. strain DS2 (natural protein)
